The target of experiment [1] is CXCR1 (UniProt P25024). Description: flow cytometry, CXCR1-U2OS / parental U2OS. On the technique in general: In flow cytometry, cells or beads pass a laser one at a time.
Experiment [2] deals with CXCR1 (UniProt P25024). As to the kind of experiment: flow cytometry, supernatant at 5 nM IgG.
Experiment [3] addresses CXCR1 (UniProt P25024). Description: flow cytometry, 10 nM IgG, 2 ug/ml heparin sulfate, CXCR1-U2OS / parental U2OS.

Numbering of substitutions follows the chain as printed. Names and notes keep the numbering of the source.

In patent publication US20230287598A1 one finds CXCR1/Parental Ratio, Specific Binding (CXCR1-Cell median AFU / Parental Cell median AFU) and CXCR1 specificity (CXCR1/parental ratio) data, which are given here for 17 molecules.

CXCR1, sequence (P25024 whole entry): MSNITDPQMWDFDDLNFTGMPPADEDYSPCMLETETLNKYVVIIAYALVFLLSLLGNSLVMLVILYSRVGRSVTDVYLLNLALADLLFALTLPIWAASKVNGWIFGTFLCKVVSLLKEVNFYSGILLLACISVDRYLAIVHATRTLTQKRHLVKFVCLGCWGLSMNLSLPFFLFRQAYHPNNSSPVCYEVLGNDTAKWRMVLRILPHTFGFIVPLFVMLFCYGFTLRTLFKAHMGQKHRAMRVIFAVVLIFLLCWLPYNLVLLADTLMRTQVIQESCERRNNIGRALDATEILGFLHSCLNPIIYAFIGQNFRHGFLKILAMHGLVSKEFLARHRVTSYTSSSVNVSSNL

B1: VH4-34+CDR3-IL8_CDR1 Cow_CDR2 Cow / V1-47 IgG (antibody, part only; not given: V1-47 light chain, part only)
VH: QVQLQQWGAGLLKPSETLSLTCTASGFSLSDKAVGWIRQPPGKGLEWLGSIDTGGNTGYNPSLKSRVTISVDTSKNQFSLKLSSVTAADTAVYYCTSVHQETKKYQSPRSAKELRCQCIKTYSKPFHPKFIKELRVIESGPHCANTEIIVKLSDGRELCLDPKENWVQRVVEKFLKRAENSGSGSYTYNYEWHVDVWGQGLLVTVSSAS
With B1, the CXCR1/Parental Ratio with CXCR1 [1] worked out at 4.6.

B2: VH4-34+CDR3-IL8_CDR1-Cow_CDR2-E50S_Q5RQ6E / VL1-51 S2A, T5N, P8S, A12G, A13S, P14L, K46R, L47T, D51G, N52D, N53T IgG (antibody)
VH: QVQLREWGAGLLKPSETLSLTCTASGFSLSDKAVGWIRQPPGKGLEWIGSINHSGSTNYNPSLKSRVTISVDTSKNQFSLKLSSVTAADTAVYYCTSVHQETKKYQSPRSAKELRCQCIKTYSKPFHPKFIKELRVIESGPHCANTEIIVKLSDGRELCLDPKENWVQRVVEKFLKRAENSGSGSYTYNYEWHVDVWGQGLLVTVSS
light: QAVLNQPSSVSGSLGQKVTISCSGSSSNIGNNYVSWYQQLPGTAPRTLIYGDTKRPSGIPDRFSGSKSGTSATLGITGLQTGDEADYYCASAEDSSSNAVFGSGTTLTVLGQPKAAPSVTLFPPSSEELQANKATLVCLISDFYPGAVTVAWKADSSPVKAGVETTTPSKQSNNKYAASSYLSLTPEQWKSHRSYSCQVTHEGSTVEKTVAPTECS
On to B2, for which the Specific Binding (CXCR1-Cell median AFU / Parental Cell median AFU) in the experiment with CXCR1 [2] was 2.

B3: VH4-34+CDR3-IL8_CDR2 E50S / VL1-51 S2A, T5N, P8S, A12G, A13S, P14L, D51G, N52D, N53T IgG (antibody)
VH: QVQLQQWGAGLLKPSETLSLTCAVYGGSFSGYYWSWIRQPPGKGLEWIGSINHSGSTNYNPSLKSRVTISVDTSKNQFSLKLSSVTAADTAVYYCTSVHQETKKYQSPRSAKELRCQCIKTYSKPFHPKFIKELRVIESGPHCANTEIIVKLSDGRELCLDPKENWVQRVVEKFLKRAENSGSGSYTYNYEWHVDVWGQGLLVTVSSAS
light: B2 light with R46K, T47L
As for B3, the Specific Binding (CXCR1-Cell median AFU / Parental Cell median AFU) in the experiment with CXCR1 [2] was 2.

B4: VH4-34+CDR3-IL8_CDR1 G31D,Y32K / V1-47 IgG (antibody, part only; not given: V1-47 light chain, part only)
VH: B3 VH with G31D, Y32K, S50E
Turning to B4, the CXCR1/Parental Ratio with CXCR1 [1] was found to be 3.6.

B5: VH4-34+CDR3-IL8_CDR2 E50S / V1-51 IgG (antibody, part only; not given: V1-51 light chain, part only)
VH: B3 VH
For B5, the CXCR1/Parental Ratio in the experiment with CXCR1 [1] amounted to 1.8.

B6: VH4-34+CDR3-IL8_CDR2 Cow / V1-51 IgG (antibody, part only; not given: V1-51 light chain, part only)
VH: B3 VH with I48L, N52D, H53T, S54G, S56N, N58G
Turning to B6, in the experiment with CXCR1 [1], the CXCR1/Parental Ratio worked out at 3.9.

B7: VH4-34+CDR3-IL8_CDR1 G31D,Y32K_CDR2 E50S / V1-51 IgG (antibody, part only; not given: V1-51 light chain, part only)
VH: B3 VH with G31D, Y32K
Regarding B7, in the experiment with CXCR1 [1], the CXCR1/Parental Ratio is 3.

B8: VH4-34+CDR3-IL8_CDR2 E50S / V1-47 IgG (antibody, part only; not given: V1-47 light chain, part only)
VH: B3 VH
Turning to B8, the CXCR1/Parental Ratio in the experiment with CXCR1 [1] amounted to 3.3.

B9: VH4-34+CDR3-IL8 / V1-51 IgG (antibody, part only; not given: V1-51 light chain, part only)
VH: B3 VH with S50E
As to B9, in the experiment with CXCR1 [1], the CXCR1/Parental Ratio is 2.9.

B10: VH4-34+CDR3-IL8_CDR1 Cow_CDR2 E50S / V1-51 IgG (antibody, part only; not given: V1-51 light chain, part only)
VH: B1 VH with L48I, D52N, T53H, G54S, N56S, G58N
Consider B10, for which the CXCR1/Parental Ratio with CXCR1 [1] is 3.1.

B11: VH4-34+CDR3-IL8_CDR1 Cow_CDR2 E50S / V1-47 IgG (antibody, part only; not given: V1-47 light chain, part only)
VH: B1 VH with L48I, D52N, T53H, G54S, N56S, G58N
On to B11, for which the CXCR1/Parental Ratio in the experiment with CXCR1 [1] is 2.6.

B12: VH4-34+CDR3-IL8_CDR1 G31D,Y32K_CDR2 E50S / V1-47 IgG (antibody, part only; not given: V1-47 light chain, part only)
VH: B3 VH with G31D, Y32K
Regarding B12, the CXCR1/Parental Ratio in the experiment with CXCR1 [1] was found to be 1.4.

B13: VH4-34+CDR3-IL8_CDR1 G31D,Y32K / V1-51 IgG (antibody, part only)
heavy: B3 VH with G31D, Y32K, S50E
light: QSVLTQPPSVSAAPGQKVTISCSGSSSNIGNNYVSWYQQLPGTAPKLLIYDNNKRPSGIPDRFSGSKSGTSATLGITGLQTGDEADYYCASAEDSSSNAVFGSGTTLTVLGQPKAAPSVTLFPPSSEELQANKATLVCLISDFYPGAVTVAWKADSSPVKAGVETTTPSKQSNNKYAASSYLSLTPEQWKSHRSYSCQVTHEGSTVEKTVAPTECS
For the molecule B13, in the experiment with CXCR1 [1], the CXCR1/Parental Ratio came to 3.

B14: VH4-34+CDR3-IL8 / V1-47 IgG (antibody, part only; not given: V1-47 light chain, part only)
VH: B3 VH with S50E
B14: the CXCR1/Parental Ratio with CXCR1 [1] stood at 2.6.

B15: VH4-34+CDR3-IL8_CDR1 Cow / V1-47 IgG (antibody, part only; not given: V1-47 light chain, part only)
VH: B1 VH with L48I, S50E, D52N, T53H, G54S, N56S, G58N
Regarding B15, the CXCR1/Parental Ratio with CXCR1 [1] amounted to 5.1.

B16: VH4-34+CDR3-IL8_CDR2 Cow / V1-47 IgG (antibody, part only; not given: V1-47 light chain, part only)
VH: B3 VH with I48L, N52D, H53T, S54G, S56N, N58G
B16: in the experiment with CXCR1 [1], the CXCR1/Parental Ratio was 2.5.

B17: VH4-34+CDR3-IL8_CDR1 Cow / V1-51 IgG (antibody, part only)
heavy: B1 VH with L48I, S50E, D52N, T53H, G54S, N56S, G58N
light: B13 light
Regarding B17, in the experiment with CXCR1 [1], the CXCR1/Parental Ratio stood at 2.4. Besides, the CXCR1 specificity (CXCR1/parental ratio) with CXCR1 [3] was 7.2.
